Reference: PMC11334519

Assays:
[1] = target: 6×Myc-tagged ORF24 BD [1–400 aa]; experiment: pull-down
3×FLAG-ORF66 = experiment: pull-down
[2] = 293T cells cotransfected, lysates pulled down with S-protein-agarose capturing 2×S-ORF34, parent: 1.00

| Substance | ratio to parent [1, 2] | ratio to parent ([1]; parent: 1.000) | ratio to parent (3×FLAG-ORF66; [2]) | ratio to parent (3×FLAG-ORF66; parent: 1.000) |
| --- | --- | --- | --- | --- |
| 2×S-tagged KSHV ORF34 WT Q264A; N265A | 0.67 | 0.665 |  |  |
| 2×S-tagged KSHV ORF34 WT Y194A | 0.64 | 0.645 | 0.003 | 0.003 |
| 2×S-tagged KSHV ORF34 WT F47A | 0.86 | 0.859 | 1.09 | 1.09 |
| 2×S-tagged KSHV ORF34 WT G182A | 1.28 | 1.29 | 0.36 | 0.359 |
| 2×S-tagged KSHV ORF34 WT C256A | 0.11 | 0.109 |  |  |
| 2×S-tagged KSHV ORF34 WT L188A; L189A | 0.5 | 0.503 |  |  |
| 2×S-tagged KSHV ORF34 WT C175A | 0.34 | 0.345 | 0.04 | 0.039 |
| 2×S-tagged KSHV ORF34 WT D154A | 0.51 | 0.512 | 0.28 | 0.282 |
| 2×S-tagged KSHV ORF34 WT Y310A | 0.96 | 0.956 | 0.17 | 0.173 |
| 2×S-tagged KSHV ORF34 WT Y215A | 1.02 | 1.02 | 0.16 | 0.167 |
| 2×S-tagged KSHV ORF34 WT V50A | 0.86 | 0.861 | 1.11 | 1.11 |
| 2×S-tagged KSHV ORF34 WT C259A | 0.03 | 0.027 |  |  |
| 2×S-tagged KSHV ORF34 WT R234A | 0.74 | 0.74 | 0.77 | 0.775 |
| 2×S-tagged KSHV ORF34 WT W160A | 0.47 | 0.473 | 0.29 | 0.289 |
| 2×S-tagged KSHV ORF34 WT G165A | 0.68 | 0.68 | 0.02 | 0.022 |
| 2×S-tagged KSHV ORF34 WT S168A | 0.94 | 0.94 | 0.97 | 0.969 |
| 2×S-tagged KSHV ORF34 WT E41A; T42A | 0.88 | 0.877 | 1.03 | 1.03 |
| 2×S-tagged KSHV ORF34 WT C170A | 0.32 | 0.325 | 0.05 | 0.057 |
